The target in the assay is Rac1 (African green monkey (endogenous in COS-1)).

B1: oncogenic Dbl (domain or fragment)
chain: HVLNELIQTERVYVRELYTVLLGYRAEMDNPEMFDLMPPLLRNKKDILFGNMAEIYEFHNDIFLSSLENCAHAPERVGPCFLERKDDFQMYAKYCQNKPRSETIWRKYSECAFFQECQRKLKHRLRLDSYLLKPVQRITKYQLLLKELLKYSKDCEGSALLKKALDAMLDLLKSVNDSMHQIAINGYIGNLNELGKMIMQGGFSVWIGHKKGATKMKDLARFKPMQRHLFLYEKAIVFCKRRVESGEGSDRYPSYSFKHCWKMDEVGITEYVKGDNRKFEIWYGEKEEVYIVQASNVDVKMTWLKEIRNILLKQQELLTVKKRKQQDQLTERDKFQISLQQNDEKQQGAFISTEETELEHTSTVVEVCEAIASVQAEANTVWTEASQSAEISEEPAEWSSNYFYPTYDENEEENRPLMRPVSEMALLY
Regarding B1, the percent inhibition by 1A-116 (50 uM, 24 h) of the SRE-luciferase activity elicited by the activated GEF in COS-1 cells was determined as 60%.

B2: Tiam1 C1199 (aa 391-1590) (domain or fragment)
chain: LEMSTTNSESLEEAGSAHSDEQSSGTLSSPGQSDILLTAAQGTVRKAGALAVKNFLVHKKNKKVESATRRKWKHYWVSLKGCTLFFYETDGRSGIDHNSVPKHAVWVENSIVQAVPEHPKKDFVFCLSNSLGDAFLFQTTSQTELENWITAIHSACAAAVARHHHKEDTLRLLKSEIKKLEQKIDMDEKMKKMGEMQLSSVTDSKKKKTILDQIFVWEQNLEQFQMDLFRFRCYLASLQGGELPNPKRLLAFASRPTKVAMGRLGIFSVSSFHALVAARTGEIGVRRRTQAMSRSASKRRSRFSSLWGLDTTSKKKQGRPTINQVFGEGTDAVKRSLEGIFDDTVPDGKREKEVVLPSVHQHNPDCDIWVHEYFTPSWFCLPNNQPALTVVRPGDTARDTLELICKTHQLDHSAHYLRLKFLMENRVQFYIPQPEEDIYELLYKEIEICPKVTQNIHIEKSDAAADNYGFLLSSVDEDGIRRLYVNSVKETGLASKKGLKAGDEILEINNRAAGTLNSSMLKDFLSQPSLGLLVRTYPEPEGGVELLENPPHRVDGPVDLGESPLAFLTSNPGHSLSSEQGSSAETAPEEGEGPDLESSDETDHSSKSTEQVAAFCRSLHEMSPSDSSPSPQDATSPQLATTRQLSDADKLRKVICELLETERTYVKDLNCLMERYLKPLQKETFLTQDELDVLFGNLTEMVEFQVEFLKTLEDGVRLVPDLEKLEKVDQFKKVLFSLGGSFLYYADRFKLYSAFCASHTKVPKVLVKAKTDTAFKAFLDAQNPRQQHSSTLESYLIKPIQRVLKYPLLLRELFALTDAESEEHYHLDVAIKTMNKVASHINEMQKIHEEFGAVFDQLIAEQTGEKKEVADLSMGDLLLHTSVIWLNPPASLGKWKKEPELAAFVFKTAVVLVYKDGSKQKKKLVGSHRLSIYEEWDPFRFRHMIPTEALQVRALPSADAEANAVCEIVHVKSESEGRPERVFHLCCSSPESRKDFLKSVHSILRDKHRRQLLKTESLPSAQQYVPFGGKRLCALKGARPAMSRAVSAPSKSLGRRRRRLARNRFTIDSDAISASSPEKEPQQPAGGGDTDRWVEEQFDLAQYEEQDDIKETDILSDDDEFCESLKGASVDRDLQEQLQAASISQRARGRRTLDSHASRMTQLKKQAALSGINGGLESASEEVIWVRREDFAPSRKLNTE
B2 showed a percent inhibition by 1A-116 (50 uM, 24 h) of the SRE-luciferase activity elicited by the activated GEF in COS-1 cells of 75%.

Values taken from paper PMC7174510.
